Experimental findings from the supplement of paper PMC11811203 are described below.

Sequences and labels used below:
B1: THAP1; numbered along this chain (parent)
chain: MVQSCSAYGCKNRYDKDKPVSFHKFPLTRPSLCKEWEAAVRRKNFKPTKYSSICSEHFTPDCFKRECNNKLLKENAVPTIFLCTEPHDKKEDLLEPQEQLPPPPLPPPVSQVDAAIGLLMPPLQTPVNLSVFCDHNYTVEDTMHQRKRIHQLEQQVEKLRKKLKTAQQRCRRQERQLEKLKEVVHFQKEKDDVSERGYVILPNDYFEIVEVPA

In the series the parent is B1. Nature of the series: THAP1 transcriptional activity (GFP+/GFP- enrichment relative to wild-type constructs) (ratio to WT); higher = more THAP1 activity (PSMB5 reporter activation). Conditions: with PSMB5 promoter-GFP reporter. In outline:
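A lentiviral site-saturation library covering residues 2–213 of human THAP1, with each position changed to all 20 amino acids, was transduced in duplicate at MOI ~0.3 into THAP1-knockout HEK-293T cells with mClover3 knocked in at endogenous PSMB5. Five days later, BFP+ cells were sorted into GFP-dim and GFP-bright bins and variants were counted by Illumina sequencing of genomic DNA amplicons. Activity is the bright/dim read fold change averaged over replicates and divided by the mean of wild-type synonymous constructs.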
As to K188Q, the THAP1 transcriptional activity was 0.954.

In the case of V139G, the THAP1 transcriptional activity is 0.378.

For the variant V139D, the THAP1 transcriptional activity was determined as 0.0939.

With Q168F, the THAP1 transcriptional activity is 0.256.

Q168G: the THAP1 transcriptional activity turned out to be 0.391.

For Q168L, the THAP1 transcriptional activity was found to be 0.433.

As for C5M, the THAP1 transcriptional activity amounted to 0.18.

As to C54S, the THAP1 transcriptional activity was 0.154.

With C54A, the THAP1 transcriptional activity is 0.0793.

Q97L: the THAP1 transcriptional activity was 1.55.

Consider Q97H, for which the THAP1 transcriptional activity was 0.853.

Consider Q97E, for which the THAP1 transcriptional activity amounted to 1.24.

For D17H, the THAP1 transcriptional activity turned out to be 1.05.

As for D17P, the THAP1 transcriptional activity was found to be 0.129.

Take K43G: the THAP1 transcriptional activity was determined as 0.329.

Consider E35F, for which the THAP1 transcriptional activity is 0.223.

Regarding E35D, the THAP1 transcriptional activity is 0.688.

In the case of E174Q, the THAP1 transcriptional activity is 1.26.

With L94D, the THAP1 transcriptional activity was found to be 1.28.

On to L94W, for which the THAP1 transcriptional activity is 0.914.

In the case of L94R, the THAP1 transcriptional activity is 2.34.

With E157G, the THAP1 transcriptional activity worked out at 0.865.

For E157W, the THAP1 transcriptional activity was 0.741.

As for E157C, the THAP1 transcriptional activity was determined as 0.685.

On to E157N, for which the THAP1 transcriptional activity came out at 0.914.

Regarding E189H, the THAP1 transcriptional activity was 0.949.

Take P78E: the THAP1 transcriptional activity worked out at 0.463.

In the case of P78L, the THAP1 transcriptional activity was 0.161.

On to Q145S, for which the THAP1 transcriptional activity worked out at 0.592.

For Q145T, the THAP1 transcriptional activity amounted to 1.05.

On to F206W, for which the THAP1 transcriptional activity was 1.27.

For the variant E95H, the THAP1 transcriptional activity was found to be 1.29.

N68P: the THAP1 transcriptional activity was found to be 0.161.

Consider N68L, for which the THAP1 transcriptional activity was 0.131.

Regarding N68G, the THAP1 transcriptional activity came out at 0.127.

As for T48K, the THAP1 transcriptional activity is 0.158.

For the variant Q176C, the THAP1 transcriptional activity came out at 0.538.

Turning to L82A, the THAP1 transcriptional activity was 1.84.

As to L82E, the THAP1 transcriptional activity amounted to 1.33.

Take D113I: the THAP1 transcriptional activity came to 0.206.

As for D113V, the THAP1 transcriptional activity was determined as 0.277.

Consider D113Q, for which the THAP1 transcriptional activity came to 0.7.

In the case of D113L, the THAP1 transcriptional activity turned out to be 0.336.

For K18N, the THAP1 transcriptional activity came to 0.432.

K18G: the THAP1 transcriptional activity came out at 0.258.

Regarding K18S, the THAP1 transcriptional activity stood at 0.384.

Consider Y14R, for which the THAP1 transcriptional activity worked out at 0.36.

Consider H185N, for which the THAP1 transcriptional activity is 1.01.

With T138C, the THAP1 transcriptional activity is 2.63.

T138W: the THAP1 transcriptional activity was determined as 0.363.

As for T138F, the THAP1 transcriptional activity turned out to be 0.626.

In the case of W36S, the THAP1 transcriptional activity amounted to 0.197.

In the case of T79S, the THAP1 transcriptional activity came out at 0.71.

With G9S, the THAP1 transcriptional activity was found to be 0.167.

Turning to L159H, the THAP1 transcriptional activity was 0.228.

As for L159Q, the THAP1 transcriptional activity was 0.261.

For C67F, the THAP1 transcriptional activity turned out to be 0.147.

For the variant C67W, the THAP1 transcriptional activity worked out at 0.116.

For C67H, the THAP1 transcriptional activity is 0.198.

On to F63R, for which the THAP1 transcriptional activity worked out at 0.084.

Turning to L93H, the THAP1 transcriptional activity turned out to be 1.01.

Consider L93C, for which the THAP1 transcriptional activity is 1.36.

With Y205W, the THAP1 transcriptional activity came to 2.45.

For Y205P, the THAP1 transcriptional activity was 0.805.

For Y205E, the THAP1 transcriptional activity is 1.09.

For the variant K70M, the THAP1 transcriptional activity is 0.175.

Turning to K70T, the THAP1 transcriptional activity turned out to be 0.397.

Turning to H135W, the THAP1 transcriptional activity was 0.177.

As to H135C, the THAP1 transcriptional activity was 0.22.

Take H135A: the THAP1 transcriptional activity turned out to be 0.145.

With C133L, the THAP1 transcriptional activity turned out to be 1.89.

On to Q187N, for which the THAP1 transcriptional activity came to 0.727.

In the case of Q187V, the THAP1 transcriptional activity worked out at 0.652.

For Q99P, the THAP1 transcriptional activity is 1.81.

Regarding Q99K, the THAP1 transcriptional activity was determined as 1.5.

On to E182Y, for which the THAP1 transcriptional activity is 0.58.

On to E182H, for which the THAP1 transcriptional activity came out at 0.73.

On to Y137D, for which the THAP1 transcriptional activity is 0.172.

For P60E, the THAP1 transcriptional activity was 0.745.

As for P60F, the THAP1 transcriptional activity turned out to be 0.333.

With P60L, the THAP1 transcriptional activity stood at 0.35.

As to K164Y, the THAP1 transcriptional activity came out at 0.307.

Regarding K164L, the THAP1 transcriptional activity was found to be 0.298.

As for K164N, the THAP1 transcriptional activity was 0.306.
